± gives the uncertainty stated by the source.
Experiment: amyloid nucleation score (Sup35N fusion, yeast selection) (log enrichment); library NNK3; higher = more nucleation; inactive = no reads after selection
In short: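 Output and input plasmid inserts were sequenced by Illumina after psi-negative yeast carrying Sup35N fused to peptides of 20 random codons had been induced 24 hours with 100 μM copper sulfate and grown 7 days at 30°C on medium lacking adenine and uracil. The nucleation score is the DiMSum log enrichment of output over input reads, centred on the mode score of non-aggregating sequences. Sequences with under 100 input reads were excluded.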

Substance	amyloid nucleation score
QVSLLYSVECMTFSFGNGDA	1.6 ± 0.11
QVYLVIV	inactive
QWEVR	inactive
QWSCGFMYSFKHLGGDCYNL	inactive
QWTQFIELLCYCYG	1.87 ± 0.11
QWWSLVTCQAMMN	inactive
QYELIGSKYVQRFSFQANFS	2.07 ± 0.074
QYLWPAKFFQTLYIVGCTTP	inactive
QYNPLDCCNVRLKLYGPLMV	inactive
QYQCADGKDNFIL	inactive
QYVSSTFHV	inactive
QYVWCGPFERYLASSVYGFS	inactive
RALTLADASGMRGINSGTMK	inactive
RAMCTALTSGTYRTCC	inactive
RANDEEFHR	inactive
RANLSDFYYSSSIDLKLPLT	inactive
RASFLSFCFSMAGFSLFDIK	inactive
RAVNKFAVNTTKGGSHSWHS	inactive
RAVRARFSKTTVFDWYAISG	inactive
RAWMCIQW	0.382 ± 0.25
RCFFNRMRTDVYSVDSKVSF	inactive
RCFSRRSCCGSVVWTVRVRH	inactive
RCFVPINGK	inactive

Substance	amyloid nucleation score
RCGHFLYEFL	inactive
RCKSGLNSMGRRFRYRIQQP	0.809 ± 0.18
RCLRKSSIFA	inactive
RCLSDCYVRNECTF	inactive
RCLYTCPYADFSEPNSNLRQ	inactive
RCNPGLVCLGCTFVSRNAYS	1.67 ± 0.081
RCQRVGI	inactive
RCSHDYGLWVVDWVVSKWGC	inactive
RCTHYMNRQMVLHVCMYVSY	inactive
RCVIALMLYVILGMNGWKAS	inactive
RDCICSRYIYGLRLSVLIWN	-0.44 ± 0.66
RDKKNNRVYFGGYSLGTWSC	inactive
RDLWNGFSLGA	inactive
RDNVFCVDVDICILVVR	inactive
RDPWFLSMVVDLFGYLNWVM	0.338 ± 0.18
RDYFAYNCMVWMGTIQLYPG	1.83 ± 0.056
REGFVIIVLTWLMDSQYST	inactive
REGLRYLMVRSIIFSHIFCN	inactive
REHLLDHTRLYC	inactive
RELNQFSPRAENWWYSSHSV	inactive
RENSKFFLIRC	inactive
RENTNSFGVNCGTQFGRISL	1.56 ± 0.099
REYRIFLVPCFSISDRGGSW	inactive

Substance	amyloid nucleation score
RFFNFPGNLKLSHVDLIAIW	0.214 ± 0.64
RFGFS	inactive
RFGGVLVVFGEWNDVVREAV	inactive
RFIISCQRYVETTT	inactive
RFIVHIYNMN	2.59 ± 0.059
RFKTF	inactive
RFLDRTLIGYVCGKRRSPSS	inactive
RFNCHRMCEHGDTLDMSYN	inactive
RFNMSFYQSYITSHCLVR	inactive
RFQFEGREFCLGMLDFNSWI	inactive
RFRKG	inactive
RFRVLTYIISYSFSFCHHVW	0.356 ± 0.27
RFSRTDGRLWSCKTCQ	inactive
RFVGVATTSFLTVTFGLVCE	inactive
RFYLDLEQQHLEIVGESR	inactive
RFYLIKPAI	inactive
RGAVCVNFTSRWSWGIGEHH	1.33 ± 0.11
RGCCKRPDGSKLVFIQMLIS	inactive
RGDSRFP	0.08 ± 0.88
RGDVLRFTWCSEPGCQRRTT	inactive
RGFICIGTLYLLAPVFCARS	2.85 ± 0.062
RGILFLV	inactive
RGKSLFLINTDM	-0.148 ± 0.7

Substance	amyloid nucleation score
RGLLEANMLGSSGDPSVNSG	inactive
RGPSAPNFWE	inactive
RGRRSCRARRYTTGAFHELL	inactive
RGSDEDGYLG	0.003 ± 0.7
RHDVSSGSYGGRSGAGSPAQ	inactive
RHGKIAAS	inactive
RHISRRRLREVGVCRLKVML	inactive
RHKWLFMWGCFHFNKCASH	inactive
RHLIAFVVNNSFLVDYDSIS	inactive
RHRASGLFP	inactive
RHWIWLMQWKD	1.11 ± 0.14
RICMRLVNMTLMCQISGVLG	inactive
RICRYGAIDLMGVP	inactive
RIDIGY	0.612 ± 0.17
RIETYCVRGILAIE	inactive
RIFFGISVIQFLIRSYSVHR	inactive
RIHSYAYPCQFFRLDYGGGQ	0.703 ± 0.13
RILVGLNCS	inactive
RISRNGCGCGILYVIIRN	inactive
RIVGEYSLKGCEVNVSWVKS	inactive
RIVMPLSVSFMPQVKHPMYR	inactive
RIYSDGRSSFSRQLVWVCSR	inactive
RKDVSCSPLLNCETVSVQ	inactive

Substance	amyloid nucleation score
RKIETLWVYIYRLFRLGEQV	inactive
RKKRY	inactive
RKLFKKTFYLAPRL	inactive
RKQRNWCTTPVVRFRVYGYA	inactive
RKRAGVMGTLSN	inactive
RKVIPCH	inactive
RLATHCKHNASCQQSFYRE	inactive
RLDPLVDFANDLMTSYSR	inactive
RLEFKESRMGLLVLGDN	inactive
RLFKSGEFDFCYIRGHCCSV	inactive
RLFSWNIYLWLL	1.48 ± 0.081
RLFYTRIDSTCIWLVLYAEK	inactive
RLGNTGMCV	inactive
RLGTM	inactive
RLGVVASPLHSTCIGNLLHG	inactive
RLIYLWVPYCNMCRCGLLCK	inactive
RLLFFLDRKDLDAGGVFSKG	inactive
RLLFSATFSRNFISCTKSSS	inactive
RLNCNYTFLLNTIHSPWCCC	inactive
RLNIYLWGVGLTRDVIYPPS	1.66 ± 0.1
RLNWASVRRFTLIGRSVRRS	inactive
RLPCPCNSVACVRTWISRCS	inactive
RLPSREIVHCVQNSGRNPVG	0.079 ± 0.35

Substance	amyloid nucleation score
RLQNPTCAAPWCCIGKGVIR	0.538 ± 0.39
RLQVRLSLLRWFRNYGLTIA	inactive
RLRRLCYSSGELDALGLCVW	0.261 ± 0.42
RLRVFVIGLPGALQIVGSLG	0.005 ± 0.98
RLSMPPRIFMPNHNCIDHAS	inactive
RLWLVYAKPGTRRCSRRMGC	inactive
RLYILAGGDFCNSCVVAYCR	0.147 ± 0.36
RLYSLSSRCNLNRATPPTKS	-0.041 ± 0.75
RLYVLAGITLTMTSTTKRSL	inactive
RMFFYWDEFYSLIVGVMSGL	inactive
RMFGNIDCFCIIIMKVSWSG	inactive
RMFICSQYWFVWVKLPPCGL	inactive
RMFWRYWYSQEMGYDRAIKG	inactive
RMIRNDFMITLEWGDSGGYH	1.28 ± 0.097
RMLLICNFGIVCQPMTSLQR	2.24 ± 0.063
RMMNKAADNVMNYNCVCCKS	inactive
RMTKTKI	inactive
RMYLAHFCVIN	2.9 ± 0.062
RNLRVIGVTRDHGNF	inactive
RNNMKTCNVMCIFSNECHCR	2.85 ± 0.055
RNTVSSTQEIWRLPISLEKT	inactive
RNWERIASGHVFCFLLCIID	inactive
RNYRGTSEIRCVPWLSSVSW	inactive

Substance	amyloid nucleation score
RPAHVIICYNLSYCNKWLHS	2.04 ± 0.071
RPNVDWKMPRFCFPSQSKTG	inactive
RPRALRQTLFDRYL	0.872 ± 0.13
RPRHDHWNDVNDATSYRYVM	inactive
RPRQSTIMKNDTSSVAVSGL	-0.582 ± 1.1
RPWPYSYTNWDLCWLMAMPN	inactive
RQADMYRYLFWGRWTVWCSW	inactive
RQFVIFYYSLIGHVNSWLRP	inactive
RQGAKVRTGGHKKQSGSSCR	inactive
RQLSSQREWECATPMRHRLA	0.145 ± 0.51
RQRMSGQNVTNNHACLFKAR	inactive
RRDPDPTLIPG	inactive
RREYVVGNSFFYNY	1.19 ± 0.093
RRGFFYIH	inactive
RRGSNTGCPNVQNFVITLWQ	inactive
RRPSQRLLGHIKVLWRNTTI	inactive
RRSVAFLPYMSW	inactive
RRTRYDS	inactive
RRVSMPLSGDKSRSVEGVRR	inactive
RRVSSSLIEAYYREQSRFQI	inactive
RRYGYNLVTL	inactive

Reference: the supplement of paper PMC12042874
